Test results taken from the DeepSol protein solubility set.

Experiment: soluble on expression in E. coli; label from the status in PepcDB or PDB records

Sequence	soluble on expression in E. coli
MSRTLTPLLDRVCEPQDLRAFPESDLARLADELRAETIDVVSVTGGHLGAGLGVIELTVALHYVFNTPEDRIIWDVGHQAYPHKILTGRREKIRTLRQEGGLSGFTKRSESVYDPFGAGHSSTSISAGLGMAVASALKAEKRRNIVAVIGDGAMSAGMAYEAMNNAGALNARLIVVLNDNDMSIAPPTGAMSAHLARLVSRPAYRSLRERVKVLGEKLPKFFLDKARRSEEFARGFLVGGTLFEELGFYYVGPIDGHNLKHLLPVLKNVREYPTGPVLIHVVTHKGKGYAPAEASLDKYHGVNRFDIITGKQVKASSNVLPYTKVFSKALREEASYDDKIVAITAAMPTGTGLDFFAEKFPERMFDVGIAEQHAVTFAAGMACEGYKPFVAIYSTFLQRAYDQIIHDVSIQKLPVRFAIDRAGFVGADGATHAGSFDIVFLTTLPEFVVMAPSDEVELMHMVRTAAAYDQGPISFRYPRGEGIGMDLPQRGEILEIGKGRILHEGNRIALVCFGTRISEVLVAADELSAEGLSTTVADARFAKPLDKDLMRRLAREHEVLVTIEEGAIGGFGAHLLQFLAQEGLLEHGLKVRTLKLPDEYLNHGSQEKVLSRIGLDAVGIVNTVFSALGRKIRTVQRVRV	not soluble
MSPAQSKPVESMTVFNTEEVDTKKQPMFFGKPLGVQRYDSYKYPVFDKLTQQQLGYFWRPEEVSLQKDRGDYQQLTPEQKHIFTSNLKYQIMLDSVQGRAPGMAFAPYCSLPELEGCINVWQFMEMIHSRSYTYIIKNVYSDPSEVFDTIIKDTNILQRAESVTKSYDDFVNDAHEYDSGNAWKFAREGHPAGTLDRRELKRKLYRAIANVNILEGIRFYVSFACSFAFGENKLMEGSAKILSLISRDESQHLVITQQILKKWADGDDPEMQEIAKEEKSFVKDMFRNTVNEEKAWADYLFKEGSMIGLNARLLNNYVEWIANRRMKAIGLDPIYDQPLRNNPLPWTEHWLNSKGQQNAPQETEIESYVIGGIKQDVKGDSFAGFKL	not soluble
MGSDKIHHHHHHMIEKTNPSHILLPEDSIKKYILPKYNLQDAEILQIKFKDTEKQRAVYKLTLGSKKYCLKKVYYDKGELLFVYSTTEWFFRHGINVTRILPTLDNSRFVIYSGMIFILMPWIDGLKCNYDKKEDLFKASKNLAHMHKCSQKFFSIQGSSIRYGFEHIYLSNKKHFEQILSFFNKAYEINDSFSKIALNNCDLCIKLSKIALNASSRIESRNFKKSLCHLDYVNKNIIFDKNNDIWVIDFDKCKFDYSVHDISYFMRRIMKRDNTRWNSELLINMLNVYEQINPLNLDEYLYILSYLVFPQKFWKICKDYYNNLSRCNKAAFINLIKSTTKYSELHLKFAYNFSNYIEGKFNVSLNL	not soluble
MFSLSFPSSSSALLPSLVAFDSSRRLSLQPKKLNRLQSHLFSPQHLSFSQSNVSRYRAFCVSSSSPPEGTVSVVDFHEKDWSFLESMEIDSTEHTQKIERIIKAGELSESSRVLVSISSETFVDRLVESSPSQLLLIVHDSLFTLACIKEKYDKVKCWQGEMIYVPEKWSPLDAVFLYFLPALPFDLDELFKTLSQRCSSGARVVISHPQGRLGLEQQRKEFSDVVVSDLPDESTLSNVAEKHSFELTQFVDEQGLYLAVLKSSKQ	soluble
TDPDADRLGVEIRQPDGSYLNLSGNQIGAIIAKYILEAHKTAGTLPANAALCKSIVSTELVTKIAESYGATMFNVLTGFKFIGEKIHEFETQHNYTYMFGFEESFGYLIKPFVRDKDAIQAVLIVAEIAAYYRSRGMTLADGIEEIYKQYGYFSE	not soluble
MGSDKIHHHHHHMCYTPACLFSRVLHSSTRWRGGRVVECVALEKRSTRKGTVGSNPTLFAKKEAPRPAQQAGFSFVDSVSQVSGAAIVQPMTRFAWTPETIPWQETAPDGTRYALLEGVREAGTFTYAFFLPAGFWDEAHWHSTDARVFVMQGELRLGYGDRLDKEAATSYPAGSALLVPAEHRHHDGAEVDTLILGVASGSWFTRYVNSANQGSAGTV	not soluble
MGSDKIHHHHHHMSLCLFCDQPFTGDLDMRRLLLPGKSKTSCLCPSCRQLFAQIGTAFCPQCGRQQDSGEICQDCQKWRRIYQGNFLHNQAVYCYNQAFHDLMVRYKRYGDYLLCQVLQELAAPAVQKLAADYYVPVPTSPEHRKKRGYDTVWEIFTPLLPLTPLLAKKAGAGAQGEKDKKARMQAKQNFFLNPEFRGTITGKIILLDDIYTTGRTLYHARDAIEKAFPKCQVESFSISR	not soluble
MTKKYLKVDVVSPLGSVFKGEADMVSLRGSAGEMGIAYGHTELLSTLPAGVVNVRKDQHTDVLYVSGGIVEVTPTRVTIMVDDMERAENLNQAEAEKARARAKEVLKNPDASKLDIEAANKRLKEADARLKALNSSNGLYYSKDD	not soluble
MFSENLKKCRKQKKLTQQNMADKLGITRPAYTAYELGSREPDYKTLINISNILDVSLDYLLKGESNEKVFQDEAKKVLNDPETFLAAKDGEVTDEILQAALEIITEQLKERRKSDK	not soluble
MGSDKIHHHHHHMTIYSPDTINFNGVNGDRYWFDEPFPYTGVGDIDERLSGFPVAVFLPHHRPRQETPLVIGLQGMCAPYGWNAFIVPTLTEMGIAVALFDPPLSGERSLVRTSTTLVQNEIKPLIDRGIPFDTALFLSIFRTTARDISKIREFCGDRYGLTDSRLALFGVSMGVLLSAYAFTANSLGDRLLGTIGHADLPSFAKSWGRPFLPDLAASPLGGLAESLLQRLQPDLAPLFQLLRLTKNLKYQDEYAWDCNPMNYIQQVDSHRRVRFLVGANDSIVKIKDARACAQKFPDGDCYVVPGMGHGTRQSGVSFVDHVRYFLATQLGDWCG	not soluble
MSLKAIQFDLSIPKYALSKAMGKMNSSLYVESPFSCLQLRDVEKPALPNDHWVEIKVKYGGICGSDLNLIFLNDSPATSPFVSFPFTLGHEMVGTISKARKSVTNLQVGQRVVIDPLLSCEVRGITPVCSECANGNYNLCHHMNDGDIAPGLLTGTCKDTGGSWGRYLVAHQSQVISLPSSVDDDNGVLVEPFACALHAVLQNRPKPSDTVFVIGSGVIGICVIAAIRALEIPCKIVTLAKHPFQAELAKQFGADEIVFLSRKRDYVTAVAESFNANVLHPVFGEPIVHGGADIVYECVGNRKSLHDSLRFARKGGKVVLIGLASFIDNLDMTMIWLNELEVKGSFTYGMEDWQGGKKRTLQIAVDLIADGKVDLSPLITHRFPLEAYREALATAANKKKGQTMKVVFEEGHHHHHH	not soluble
LGKQIMFDAFRFKCPPQELNAAIIKQLRGLLDLGIGEIKARAEKQEALLEYPIFFNDWQDNKKIIRNLLDRISADQLPLEIYRYTTFEDGSVLEEQLTLKEANEALTALQRIELEQDMLSQLEAGHISSRDEYVPDDEDV	not soluble
MGHPPLLPLLLLLHTCVPASWGLRCMQCKTNGDCRVEECALGQDLCRTTIVRLWEEGEELELVEKSCTHSEKTNRTLSYRTGLKITSLTEVVCGLDLCNQGNSGRAVTYSRSRYLECISCGSSDMSCERGRHQSLQCRSPEEQCLDVVTHWIQEGEEGRPKDDRHLRGCGYLPGCPGSNGFHNNDTFHFLKCCNTTKCNEGPILELENLPQNGRQCYSCKGNSTHGCSSEETFLIDCRGPMNQCLVATGTHEPKNQSYMVRGCATASMCQHAHLGDAFSMNHIDVSCCTKSGCNHPDLDVQYRSGAAPQPGPAHLSLTITLLMTARLWGGTLLWT	not soluble
MVCISRFLPVKGVQNINGKELKSIVGKKGKYFIDVRTVGEYRGNHMKGFQNIPLNDLASKANQLDKNKEVIVICQSGMRSKQAAKVLKKLGFQQVINVSGGMNSL	not soluble
LENPLYYLHNFRQVLNWLQLRYADVLSADEQRFILDFAQLAEPSQALLVRMVMRKGRHFRLSKLSYPEIGDSAAALEPLLALGWVDEQAPLCLEELFGLLQKAEILQCFNGLAAKARKDQWLEELTQQGLAPQAFAQWCPALPDRLLSLTLMPLCDRLRLMFFGNLYQDWSEFVLADLGIYSYEKVEISADARGLRSREDVDGFLYLHECQEAFEAGAELPEVLAHIARFQTLNPWLEKRRAKLLFQLGQQCERLAQWALARQIYQECAYPGARSRLIRVLERSAQYQAALALAEQAAAAPESAAEAQHLLRIMPRLRRKLGGPPAPRAANREVQRLDLCLARDADGLAVELHVQAHLHQPQAPVHYVENSLINSLFGLLCWPAIFAPLPGAFFHPFQRGPVDLFSEDFHQRRSELFQACLAELDDGRYRQSIRQRFVAKWGLQSPFVFWGALSEELLDQALDCLPAEHLKHWFQRLLLDIKANRAGMPDLIQFWPEQKRYRMIEVKGPGDRLQDNQLRWLDFCQEHRMPVAVCYVQWQ	not soluble
MYKQILVPVDLNDQGFSDRAVELAVWQAKQANAEIHLLTVLPGIHMSMVATYFPKDAAAKMKQDVKQQLKAFASEHIDDEVIYKVHVAEGKAYATILDYAERLGADLIIMPSHKRSKINKVMLGSVASKVVEYSPINVMVVKPQG	not soluble
MSKDTKQEDNAPTPVTTTPMALNPKTVEKTMFVNKEVLPKMKKIDPEEPGHLPLNEKFMKRWLIEGLIGKGGYGEIYLALDVVRGEEVAIKVEPKKRRGKLAKRMILEQHVLAKMQGKPHVPMIYGSGHAEKYNFIIMQILSINVGDIKKSSPNKKLSQCSVGRIIHQVIAALQDLHETGYVHRDVKPANMCFGIFPHSRHTLILLDFGLVRRYKMESGEWREPRLRAGFRGTTRYVSIRVHRRCEQSPYDDLVSVMYTAYELLAGELPWKHLEKSEEVVQLKEVMTENGINPELFQGDKSVLIDFFKQVSEMDPMKEPCYEKLIECIKVLYAPKVLTDPYEWEESSKGQDEVSEENTNSK	soluble
AEIVEGRDYTVLSAPQPTEGDSEHIEVIEFFWYGCPHCSDLHPHLSRWLENKPADVAFRFVPAILRNNWVPGAKTFYAMESLGLTQTLHDKVYHAIHREKTDLSKEATLFDWIGKQGVDRDKFIGAYNSFTVQNQANRSAQMIRQYKLTGVPALVVDGRYLTSGKAGGTPQDTISVLNQLIEK	not soluble
MAHHHHHHMEKKKKESTIKISLNINTKFNESYLDEQNDIINEALIKNNNKEIIHSLNLIENIRQGTFDYKDLREVYFMNDNDLFSMLNDKKASEEKGKGKEDAHNNNNIDNKICNNDKVGDKNKKLSNNNNNNGNDLNIQIEGDQNYNFNKNNETNIFVLDNDVDKVCIIRFPFSVSKDIKKYLLNKNLDMVIQPTTLLNSRFFLIHFKNINKKFHGILLELSTHIEIHKTLDRNNLYKSNDVSQMIYVYEHNTNSKELLKKFINNNFELCGGISKKLNHFIFQNHTKLFKYHDIYFAEKLIYEYLNTPYYDYFDLYVKTLNEMHNHIIMEKENNNKQNEIVDETTDLAAILGSLDNSYNIMNLIEKQDGDIDFEALLNYDIEKENYESDVSDLLLGGTYYLQKK	not soluble
MRGSHHHHHHGMASMTGGNNMGRDLYDDDDKDPGRRMMHNSNADDAALTTDVVVVGGGPVGLMLAGELRAGGVGALVLEKLVEPVGHDRAGALHIRTVETLDLRGLLDRFLEGTQVAKGLPFAGIFTQGLDFGLVDTRHPYTGLVPQSRTEALLAEHAREAGAEIPRGHEVTRLRQDAEAVEVTVAGPSGPYPVRARYGVGCDGGRSTVRRLAADRFPGTEATVRALIGYVTTPEREVPRRWERTPDGILVLAFPPEGGLGPGWSSSSTGHSPAADEGPVTLEDLGAAVARVRGTPLTLTEPVSWLSRFGDASRQAKRYRSGRVLLAGDAAHVHFPIGGQGLNTGLQDAVNLGWKLAARVRGWGSEELLDTYHDERHPVAERVLLNTRAQLALMRPDEQHTTPLRGFVEELLGTDEVNRYFTGMITGTDVRYATFAPAASARPHPWPGRFAGGLVLSRPSGEPVPVAELLRSARPLLLDLAGRADLREATRPWSDRVSVVAGEATVEPPAQALLVRPDGYVAWAGSPAATADELRASLARWFGPPANREPVGHQERAGRRGRPLSALKPE	soluble
